Measured values from patent US20240309080A1 (CHIA TAI TIANQING PHARMACEUTICAL GROUP, published 2024).
Like-named read-outs stand apart in the source and are kept apart here.

Legend:
Assay in all cases: cell-based or functional assay
[1] = target: T1, recombinant human TSLP-his (human, UniProt Q969D9 29-159, biotin-labeled in the capture ELISA)
[2] = target: T1, recombinant human TSLP-his; remark: listed apart in the source
[3] = target: T1, recombinant human TSLP-his; remark: listed apart in the source
[4] = target: T1, recombinant human TSLP-his; remark: listed apart in the source
[5] = target: T1, recombinant human TSLP-his; remark: listed apart in the source
[6] = target: T1, recombinant human TSLP-his; remark: listed apart in the source

Row | Binder | IC50, TSLP-his dependent survival and proliferation of BAF3-3E6 cells expressing TSLPR/IL7R (Cell Titer-Glo, RLU) [1] [pM] | IC50, TSLP-his dependent survival and proliferation of BAF3-3E6 cells expressing TSLPR/IL7R (Cell Titer-Glo, RLU) [2] [pM] | IC50, TSLP-his dependent survival and proliferation of BAF3-3E6 cells expressing TSLPR/IL7R (RLU) [3] [pM] | IC50, STAT5-luciferase reporter in HEK293T-TSLPR/IL7R/STAT5-Luc cells stimulated with human TSLP-his (RLU) [4] [µg/mL] | IC50, TSLP-his dependent survival and proliferation of BAF3-3E6 cells expressing TSLPR/IL7R (RLU) [5] [pM] | IC50, STAT5-luciferase reporter in HEK293T-TSLPR/IL7R/STAT5-Luc cells stimulated with human TSLP-his (RLU) [6] [µg/mL]
1 | Chimeric 1C5F12E9 (antibody, V domains shown) VH: QVQLQQPGTELVKPGASVKMSCKASGYTFTTYWMHWVKQRPGQGLEWIGVIDPSDSDTTYNQKFKGKATLTVDTSSSTAYMQLSSLTSEDSAVYYCTRSLDGYYDYWGQGTTLTVSS VL: DIQMTQSPASLSASVGETVTITCRPTENIYSYLAWYQQKQGKSPHLLVYFARTLAEGVPSRFSGSGSGTQFSLKINSLQPEDFGIYYCQHHYGTPWTFGGGTKLEIK | 1.37 | 0.521 |  |  |  | 
2 | hu1C5F12E9-V8 (IgG1) (antibody) heavy: not shown light: DIQMTQSPSSLSASVGDRVTITCRPTENIYSYLAWYQQKPGKAPKLLIYFARTLAEGVPSRFSGSGSGTDFTLTISSLQPEDFATYYCQHHYGTPWTFGGGTKVEIKRTVAAPSVFIFPPSDEQLKSGTASVVCLLNNFYPREAKVQWKVDNALQSGNSQESVTEQDSKDSTYSLSSTLTLSKADYEKHKVYACEVTHQGLSSPVTKSFNRGEC |  |  | 4.32 | 0.0118 |  | 
3 | hu1C5F12E9-V8 (IgG4) (antibody) heavy: not shown light: DIQMTQSPSSLSASVGDRVTITCRPTENIYSYLAWYQQKPGKAPKLLIYFARTLAEGVPSRFSGSGSGTDFTLTISSLQPEDFATYYCQHHYGTPWTFGGGTKVEIKRTVAAPSVFIFPPSDEQLKSGTASVVCLLNNFYPREAKVQWKVDNALQSGNSQESVTEQDSKDSTYSLSSTLTLSKADYEKHKVYACEVTHQGLSSPVTKSFNRGEC |  | 1.68 | 14.7 | ~0.0162 |  | 
4 | hu1C5F12E9-V14 (IgG4) (antibody) heavy: not shown light: DIQMTQSPSSLSASVGDRVTITCRPTENIYSYLAWYQQKPGKSPKLLIYFARTLAEGVPSRFSGSGSGTDFTLTISSLQPEDFATYYCQHHYGTPWTFGGGTKVEIKRTVAAPSVFIFPPSDEQLKSGTASVVCLLNNFYPREAKVQWKVDNALQSGNSQESVTEQDSKDSTYSLSSTLTLSKADYEKHKVYACEVTHQGLSSPVTKSFNRGEC | 5.78 |  |  |  | 8.36 | 0.025
5 | hu1C5F12E9-V14 (IgG1) (antibody) heavy: not shown light: DIQMTQSPSSLSASVGDRVTITCRPTENIYSYLAWYQQKPGKSPKLLIYFARTLAEGVPSRFSGSGSGTDFTLTISSLQPEDFATYYCQHHYGTPWTFGGGTKVEIKRTVAAPSVFIFPPSDEQLKSGTASVVCLLNNFYPREAKVQWKVDNALQSGNSQESVTEQDSKDSTYSLSSTLTLSKADYEKHKVYACEVTHQGLSSPVTKSFNRGEC |  |  |  |  | 6.73 | 0.022
